Test results as given in patent publication US20230287087A1 (MAX PLANCK GESELLSCHAFT ZUR F RDERUNG DER WISSENSCHAFTEN E V, published 2023).

What was measured:
[1] = target: B.1.617.2/Delta RBD (40592-V08H90, Sino Biologicals) (SARS-CoV-2, UniProt P0DTC2 319-541); experiment: BLI, biotinylated VHH on streptavidin sensor, RBD in solution
[2] = target: T1, SARS-CoV-2 spike receptor-binding domain (RBD), wild type (SARS-CoV-2, UniProt P0DTC2 319-541); experiment: as above
[3] = target: T1, SARS-CoV-2 spike receptor-binding …; experiment: method not stated
[4] = target: Spike protein of patient-derived SARS-CoV-2 (D614G) (SARS-CoV-2, UniProt P0DTC2 14-1273); experiment: cell-based or functional assay
[5] = target: South African RBD mutant (K417N, E484K, N501Y) (SARS-CoV-2, UniProt P0DTC2 319-541); experiment: BLI
[6] = target: Brazilian RBD mutant (K417T, E484K, N501Y) (SARS-CoV-2, UniProt P0DTC2 319-541); experiment: BLI
[7] = target: Californian RBD mutant (L452R) (SARS-CoV-2, UniProt P0DTC2 319-541); experiment: BLI

B1: Re6H06 (VHH)
VHH: QVQLVESGGGLVQPGGSLRLSCAASGVTLDYYAIGWFRQAPGKEREGVSCTSSSDGSTYYADSVKGRFTISRDNAKNTVYLQMNSLKPEDTGVYYCAVVPQTYYGGKYYSQCTANGMDYWGKGTLVTVSS
B1 was tested, and the Kd [1] was ≤ 0.01 nM, the Kd [2] was ≤ 0.01 nM and the Kd [3] was ≤ 0.001 nM. For the same binder, the “Lowest SARS-COV-2-neutralizing concentration” value [4] was 50 pM, the Kd [5] was ≤ 0.01 nM and the Kd [6] was ≤ 0.01 nM. For the same binder, the Kd [7] was 0.05 nM.
